The source of these data is patent US20080009025A1 (published 2008).

The assay addresses T1, PIFtide (24 residue synthetic peptide encompassing the PDK1 binding site on PIF) (human).
T1 construct: also called wild type PIF peptide; 24 residue PIF peptide
T1 peptide: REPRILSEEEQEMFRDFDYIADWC
Put plainly: method not stated.

B1: GST-PDK1[I119A] (enzyme, not shown: a dimerising Fc or GST; small tags and cut ends)
chain: MARTTSQLYDAVPIQSSVVLCSCPSPSMVRTQTESSTPPGIPGGSRQGPAMDGTAAEPRPGAGSLQHAQPPPQPRKKRPEDFKFGKILGEGSFSTVVLARELATSREYAIKILEKRHIAKENKVPYVTRERDVMSRLDHPFFVKLYFTFQDDEKLYFGLSYAKNGELLKYIRKIGSFDETCTRFYTAEIVSALEYLHGKGIIHRDLKPENILLNEDMHIQITDFGTAKVLSPESKQARANSFVGTAQYVSPELLTEKSACKSSDLWALGCIIYQLVAGLPPFRAGNEYLIFQKIIKLEYDFPEKFFPKARDLVEKLLVLDATKRLGCEEMEGYGPLKAHPFFESVTWENLHQQTPPKLTAYLPAMSEDDEDCYGNYDNLLSQFGCMQVSSSSSSHSLSASDTGLPQRSGSNIEQYIHDLDSNSFELDLQFSEDEKRLLLEKQAGGNPWHQFVENNLILKMGPVDKRKGLFARRRQLLLTEGPHLYYVDPVNKVLKGEIPWSQELRPEAKNFKTFFVHTPNRTYYLMDPSGNAHKWCRKIQEVWRQRYQSHPDAAVQ
B1: the “fold decrease in affinity (against wild type PDK1)” value was roughly 10 fold.
